Assay results: US20220033516A1

Target: recombinant human HER2 S310F ECD protein (human) (UniProt P04626)
Assay: SPR, Biacore 8K, 37 C, antibody captured by anti-human Fc on CM4, antigen as analyte, 1:1 model

Kd: 40.4 nM
B1: MHR0060/CD3 (bispecific antibody, human IgG1, kappa, N297A)
heavy 1: QSVEESGGRLVTPGTPLTLTCTVSGFSLSSYAMGWVRQAPGKGLEYIGIISSSGSTYYANWAKGRFTISKTSTTVDLKITSPTTEDTATYFCARGVDIYGHPYATPYGMDLWGPGTLVTVSSASTKGPSVFPLAPSSRSTSESTAALGCLVKDYFPEPVTVSWNSGALTSGVHTFPAVLQSSGLYSLSSVVTVPSSSLGTKTYTCNVDHKPSNTKVDKRVEPKSCDKTHTCPPCPAPELRRGPKVFLFPPKPKDTLMISRTPEVTCVVVDVSQEDPEVQFNWYVDGVEVHNAKTKPREEQFASTYRVVSVLTVLHQDWLNGKEYKCKVSNKGLPSSIEKTISKAKGQPREPQVYTLPPSREEMTKNQVSLTCLVKGFYPSDIAVEWESNGQPENNYKTTPPYLDSDGSFFLYSKLTVDKSRWQEGNVFSCSVMHEALHNHYTQESLSLSP
light 1: EVVMTQTPASVEVAVGGTVTIKCQASQSISSYLAWYQQKPGQPPKLLIYYASTLASGVPSRFKGSGSGTEFTLTISDLECDDAATYYCQSNYGSSSSSYEDTFGGGTKVEIKRTVAAPSVFIFPPSDEQLKSGTASVVCLLNNFYPREAKVQWKVDNALQSGNSQESVTEQDSKDCTYSLSSTLTLSKADYEKHKVYACEVTHQGLSSPVTKSFNRGEC
heavy 2: QVQLVESGGGVVQPGGSLRLSCAASGFTFSNAWMHWVRQAPGKGLEWVAQIKDKSQNYATYVAESVKGRFTISRADSKNSIYLQMNSLKTEDTAVYYCRYVHYAAGYGVDIWGQGTTVTVSSASTKGPSVFPLAPSSRSTSESTAALGCLVKDYFPEPVTVSWNSGALTSGVHTFPAVLQSSGLYSLSSVVTVPSSSLGTKTYTCNVDHKPSNTKVDKRVEPKSCDKTHTCPPCPAPELRRGPKVFLFPPKPKDTLMISRTPEVTCVVVDVSQEDPEVQFNWYVDGVEVHNAKTKPREEQFASTYRVVSVLTVLHQDWLNGKEYKCKVSNKGLPSSIEKTISKAKGQPREPQVYTLPPSRKEMTKNQVSLTCLVKGFYPSDIAVEWESNGQPENNYKTTPPYLDSDGSFFLYSKLTVDKSRWQEGNVFSCSVMHEALHNHYTQKSLSLSP
light 2: DIVMTQSPLSLPVTPGEPASISCRSSQPLVHSNRNTYLHWYQQKPGQAPRLLIYKVSNRFSGVPDRFSGSGSGTDFTLKISRVEAEDVGVYYCGQGTQVPYTFGQGTKLEIKRTVAAPSVFIFPPSDEQLKSGTASVVCLLNNFYPREAKVQWKVDNALQSGNSQESVTEQDSKDSTYSLSSTLTLSKADYEKHKVYACEVTHQGLSSPVTKSFNRGEC
